{
  "source": "patent US12708677B2",
  "about": "“Contrast agents, methods for preparing contrast agents, and methods of imaging” (Georgia State University Research Foundation, Inc., priority 2008, dated 2026)",
  "molecules": {"B1": {"name": "CA1.CD2: designed Gd^3+-binding protein, domain 1 of rat CD2 with ligand residues Glu15, Glu56, Asp58, Asp62, Asp64 (protein)", "chain": "RDSGTVWGALGHGIELNIPNFQMTDDIDEVRWERGSTLVAEFKRKMKPFLKSGAFEIDANGDLDIKNLTRDDSGTYNVTVYSTNGTRILNKALDLRILE"}},
  "test_system": "EMT6 cells",
  "experiment": "Cell binding by immuno-fluorescence staining",
  "type": "cell-based, mouse",
  "source_text": "We first examined whether the designed CA1.HER2/Affi can target cancer cells by cell binding analyses. We used two cancer cell lines for the binding analyses. AU565 is derived from breast carcinoma. EMT6 is a mouse mammary tumor cell line. AU565 cells express very high levels of HER2. The EMT is regarded as a HER2 negative cell line. Binding of the Gd-CA1.HER2/Affi to the cancer cells was first analyzed by immuno-fluorescence staining using a polyclonal antibody against PEGylated parental protein CA1.CD2 (PAbPGCA1).",
  "data": [
    {"molecule": "B1", "values": [
      {"measurement": "binding to EMT6 cells", "result": "did not bind to either of the tested cultured cells"}
    ]}
  ]
}
